Results from US20090252748A1.

What was measured:
[1] = target: human Sp35 protein expressed on transfected cells (human) (UniProt Q96FE5); experiment: FACS, live human LINGO-1 transfected 293 cells, PE-labelled secondary antibody without primary antibody, FL2-H; Cell only 4.71 [panel 2nd Ab only]
[2] = target: human Sp35 protein expressed on transfected cells (human) (UniProt Q96FE5); experiment: FACS, live human LINGO-1 transfected 293 cells, PE-labelled secondary antibody without primary antibody, FL2-H; Cell only 0.94 [panel 2nd Ab only]
[3] = target: human Sp35 protein expressed on transfected cells (human) (UniProt Q96FE5); experiment: FACS, live human LINGO-1 transfected 293 cells, PE-labelled secondary antibody without primary antibody, FL2-H; Cell only 4.47 [panel 2nd Ab only]
[4] = target: human Sp35 protein expressed on transfected cells (human) (UniProt Q96FE5); experiment: FACS, live human LINGO-1 transfected 293 cells, PE-labelled secondary antibody without primary antibody, FL2-H; Cell only 5.81 [panel 2nd Ab only]
[5] = target: CD32; experiment: CD32 binding assay, format not described

Chain of human Sp35 protein expressed on transfected cells (human) (Q96FE5 40-620): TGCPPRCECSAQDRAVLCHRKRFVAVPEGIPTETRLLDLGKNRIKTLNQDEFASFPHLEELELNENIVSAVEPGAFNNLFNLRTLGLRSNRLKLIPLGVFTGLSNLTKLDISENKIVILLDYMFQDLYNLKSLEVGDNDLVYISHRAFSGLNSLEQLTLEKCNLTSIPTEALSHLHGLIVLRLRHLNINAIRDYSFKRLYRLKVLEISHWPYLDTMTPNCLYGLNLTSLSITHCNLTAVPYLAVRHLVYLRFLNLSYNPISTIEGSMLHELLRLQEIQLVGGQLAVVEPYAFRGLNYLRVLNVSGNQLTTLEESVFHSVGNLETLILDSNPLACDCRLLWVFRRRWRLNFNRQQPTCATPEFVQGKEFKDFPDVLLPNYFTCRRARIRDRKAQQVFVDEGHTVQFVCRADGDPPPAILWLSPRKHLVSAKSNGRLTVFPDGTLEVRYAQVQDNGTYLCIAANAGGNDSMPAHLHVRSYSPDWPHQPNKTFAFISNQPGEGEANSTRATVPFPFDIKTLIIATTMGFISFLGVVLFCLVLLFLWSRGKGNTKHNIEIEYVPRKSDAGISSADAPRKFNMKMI

(FL2-H) Median [1]	number over the marker gate of the FL2-H histogram [2]	(FL2-H) Geom. Mean [3]	(FL2-H) Mean [4]	IC50 [5] [µg/mL]	Substance
6.76	5.52	6.6	8.78	–	2nd Ab only (PE-labelled secondary antibody without primary antibody)
–	–	–	–	25	Li33Ig2 agly (antibody)
–	–	–	–	4.3	Li33Ig2 wt (antibody)
